How the values were obtained:
[1] = molecular target: T1, AF15q14 peptide GFLNEPLSSKSQRRKSLKLK (SEQ ID NO:132) (not fully specified)
T1 chain: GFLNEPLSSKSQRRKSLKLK

[2] = molecular target: T2, ARHGAP4 peptide AGPLRKSSLKKGGRL (SEQ ID NO:98) (not fully specified)
T2 chain: AGPLRKSSLKKGGRL

[3] = molecular target: T3, ARHGAP6 peptide DGQKRKKSLRKKLD (SEQ ID NO:92) (not fully specified)
T3 chain: DGQKRKKSLRKKLD

[4] = molecular target: T4, ARHGAP6 peptide SAQITIPKDGQKRKKSLRKK (SEQ ID NO:156) (not fully specified)
T4 chain: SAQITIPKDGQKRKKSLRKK

[5] = molecular target: T5, EBNA1BP2 peptide KRPGKKGSNKRPGKR (SEQ ID NO:112) (not fully specified)
T5 chain: KRPGKKGSNKRPGKR

[6] = molecular target: T6, GABRB2 peptide QKKSRLRRRASQLKI (SEQ ID NO:84) (not fully specified)
T6 chain: QKKSRLRRRASQLKI

[7] = molecular target: T7, KCNH2 peptide RQRKRKLSFRRRTDKD (SEQ ID NO:86) (not fully specified)
T7 chain: RQRKRKLSFRRRTDKD

[8] = molecular target: T8, LIMK2 peptide KATTKKRTLRKNDRK (SEQ ID NO:108) (not fully specified)
T8 chain: KATTKKRTLRKNDRK

[9] = molecular target: T9, MARCKS peptide KKKRFSFKKSFKLSGFSFKK (SEQ ID NO:111) (not fully specified)
T9 chain: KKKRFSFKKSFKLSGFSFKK

[10] = molecular target: T10, MARCKS peptide KKRFSFKKSFKLSGFSFKKN (SEQ ID NO:123) (not fully specified)
T10 chain: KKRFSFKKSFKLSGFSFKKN

[11] = molecular target: T11, MCM2 peptide VQRHRSMRKTFARYLSFRRD (SEQ ID NO:129) (not fully specified)
T11 chain: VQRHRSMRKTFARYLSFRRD

[12] = molecular target: T12, MLK3 peptide HVRRRRGTFKRSKLRARD (SEQ ID NO:76) (not fully specified)
T12 chain: HVRRRRGTFKRSKLRARD

[13] = molecular target: T13, MLK3 peptide QQVDRERPHVRRRRGTFKRS (SEQ ID NO:128) (not fully specified)
T13 chain: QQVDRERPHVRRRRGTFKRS

[14] = molecular target: T14, NF1 peptide AGSFKRNSIKKIV (SEQ ID NO:102) (not fully specified)
T14 chain: AGSFKRNSIKKIV

[15] = molecular target: T15, NIK peptide TEGKMARVAWKGKRRSKARK (SEQ ID NO:164) (not fully specified)
T15 chain: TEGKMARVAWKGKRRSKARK

[16] = molecular target: T16, PLD1 peptide KYKAFIRIPIPTRRHTFRRQ (SEQ ID NO:161) (not fully specified)
T16 chain: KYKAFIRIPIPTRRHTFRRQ

[17] = molecular target: T17, PRKCA peptide RFARKGSLRQKNV (SEQ ID NO:85) (not fully specified)
T17 chain: RFARKGSLRQKNV

[18] = molecular target: T18, PRKCM peptide VHYTSKDTLRKRHYWR (SEQ ID NO:91) (not fully specified)
T18 chain: VHYTSKDTLRKRHYWR

[19] = molecular target: T19, PSCD2 peptide AARKKRISVKKKQEQ (SEQ ID NO:93) (not fully specified)
T19 chain: AARKKRISVKKKQEQ

[20] = molecular target: T20, PSCDBP peptide LSSMFGTLPRKSRKGSVRKQ (SEQ ID NO:144) (not fully specified)
T20 chain: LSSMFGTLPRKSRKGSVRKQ

[21] = molecular target: T21, SPTBN4 peptide EGGDRRASGRRK (SEQ ID NO:110) (not fully specified)
T21 chain: EGGDRRASGRRK

[22] = molecular target: T22, SYTL4 peptide RQGKRKTSIKRDTVNPL (SEQ ID NO:87) (not fully specified)
T22 chain: RQGKRKTSIKRDTVNPL

[23] = molecular target: T23, ankyrin R peptide DLIEGRKGAQIVKRASLKRG (SEQ ID NO:152) (not fully specified)
T23 chain: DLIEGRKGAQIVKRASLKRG

[24] = molecular target: T24, beta adducin peptide KKKFRTPSFLKKSKK (SEQ ID NO:135) (not fully specified)
T24 chain: KKKFRTPSFLKKSKK

[25] = molecular target: T25, beta adducin peptide PSKSPSKKKKKFRTPSFLKK (SEQ ID NO:137) (not fully specified)
T25 chain: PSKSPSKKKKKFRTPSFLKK

[26] = molecular target: T26, cytohesin-2 peptide VDPFYEMLAARKKRISVKKK (SEQ ID NO:150) (not fully specified)
T26 chain: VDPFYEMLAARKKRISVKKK

[27] = molecular target: T27, dag kinase iota peptide NRKKKRTSFKRKA (SEQ ID NO:117) (not fully specified)
T27 chain: NRKKKRTSFKRKA

[28] = molecular target: T28, dag kinase zeta peptide RPQNTLKASKKKKRASFKRK (SEQ ID NO:118) (not fully specified)
T28 chain: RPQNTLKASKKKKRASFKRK

[29] = molecular target: T29, gravin peptide KKFFTQGWAGWRKKTSFRKP (SEQ ID NO:154) (not fully specified)
T29 chain: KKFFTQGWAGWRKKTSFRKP

[30] = molecular target: T30, p47phox peptide QAQRQIKRGAPPRRSSIRNA (SEQ ID NO:146) (not fully specified)
T30 chain: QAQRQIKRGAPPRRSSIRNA

[31] = molecular target: T31, pkc-zeta peptide GLPAPGEDKSIYRRGSRRWR (SEQ ID NO:167) (not fully specified)
T31 chain: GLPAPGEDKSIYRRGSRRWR

B1: PKC-theta (protein)
chain: MSPFLRIGLSNFDCGSCQSCQGEAVNPYCAVLVKEYVESENGQMYIQKKPTMYPPWDSTFDAHINKGRVMQIIVKGKNVDLISETTVELYSLAERCRKNNGKTEIWLELKPQGRMLMNARYFLEMSDTKDMNEFETEGFFALHQRRGAIKQAKVHHVKCHEFTATFFPQPTFCSVCHEFVWGLNKQGYQCRQCNAAIHKKCIDKVIAKCTGSAINSRETMFHKERFKIDMPHRFKVYNYKSPTFCEHCGTLLWGLARQGLKCDACGMNVHHRCQTKVANLCGINQKLMAEALAMIESTQQARCLRDTEQIFREGPVEIGLPCSIKNEARPPCLPTPGKREPQGISWESPLDEVDKMCHLPEPELNKERPSLQIKLKIEDFILHKMLGKGSFGKVFLAEFKKTNQFFAIKALKKDVVLMDDDVECTMVEKRVLSLAWEHPFLTHMFCTFQTKENLFFVMEYLNGGDLMYHIQSCHKFDLSRATFYAAEIILGLQFLHSKGIVYRDLKLDNILLDKDGHIKIADFGMCKENMLGDAKTNTFCGTPDYIAPEILLGQKYNHSVDWWSFGVLLYEMLIGQSPFHGQDEEELFHSIRMDNPFYPRWLEKEAKDLLVKLFVREPEKRLGVRGDIRQHPLFREINWEELERKEIDPPFRPKVKSPFDCSNFDKEFLNEKPRLSFADRALINSMDQNMFRNFSFMNPGMERLIS
With B1 the in vitro phosphorylation, 1 uM peptide (% of best substrate) [1] was 34, the in vitro phosphorylation, 10 uM peptide (% of best substrate) [1] was 40 and the in vitro phosphorylation (% of best substrate) [2] was 22. It also gave an in vitro phosphorylation (% of best substrate) [3] of 47, an in vitro phosphorylation, 1 uM peptide (% of best substrate) [4] of 18 and an in vitro phosphorylation, 10 uM peptide (% of best substrate) [4] of 23. For the same protein, the in vitro phosphorylation (% of best substrate) [5] was 17, the in vitro phosphorylation (% of best substrate) [6] was 87 and the in vitro phosphorylation (% of best substrate) [7] was 38. It also gave an in vitro phosphorylation (% of best substrate) [8] of 32, an in vitro phosphorylation (% of best substrate) [9] of 18 and an in vitro phosphorylation, 1 uM peptide (% of best substrate) [10] of 47. It also gave an in vitro phosphorylation, 10 uM peptide (% of best substrate) [10] of 32, an in vitro phosphorylation, 1 uM peptide (% of best substrate) [11] of 48 and an in vitro phosphorylation, 10 uM peptide (% of best substrate) [11] of 25. It also gave a Peptide phosphorylation by PKC-theta [12] of 99, an in vitro phosphorylation (% of best substrate) [12] of 100 and an in vitro phosphorylation, 1 uM peptide (% of best substrate) [13] of 41. For the same protein, the in vitro phosphorylation, 10 uM peptide (% of best substrate) [13] was 59, the in vitro phosphorylation (% of best substrate) [14] was 28 and the in vitro phosphorylation, 1 uM peptide (% of best substrate) [15] was 24. It also gave an in vitro phosphorylation, 10 uM peptide (% of best substrate) [15] of 20, an in vitro phosphorylation, 1 uM peptide (% of best substrate) [16] of 19 and an in vitro phosphorylation, 10 uM peptide (% of best substrate) [16] of 23. For the same protein, the in vitro phosphorylation (% of best substrate) [17] was 46, the in vitro phosphorylation (% of best substrate) [18] was 10 and the in vitro phosphorylation (% of best substrate) [19] was 40. The in vitro phosphorylation, 1 uM peptide (% of best substrate) [20] was 35, the in vitro phosphorylation, 10 uM peptide (% of best substrate) [20] was 22 and the in vitro phosphorylation (% of best substrate) [21] was 22. The in vitro phosphorylation (% of best substrate) [22] was 65, the in vitro phosphorylation, 1 uM peptide (% of best substrate) [23] was 31 and the in vitro phosphorylation, 10 uM peptide (% of best substrate) [23] was 30. The in vitro phosphorylation, 1 uM peptide (% of best substrate) [24] was 30, the in vitro phosphorylation, 10 uM peptide (% of best substrate) [24] was 36 and the in vitro phosphorylation, 1 uM peptide (% of best substrate) [25] was 40. For the same protein, the in vitro phosphorylation, 10 uM peptide (% of best substrate) [25] was 19, the in vitro phosphorylation, 1 uM peptide (% of best substrate) [26] was 35 and the in vitro phosphorylation, 10 uM peptide (% of best substrate) [26] was 35. For the same protein, the in vitro phosphorylation, 1 uM peptide (% of best substrate) [27] was 84, the in vitro phosphorylation, 10 uM peptide (% of best substrate) [27] was 78 and the in vitro phosphorylation, 1 uM peptide (% of best substrate) [28] was 67. The in vitro phosphorylation, 10 uM peptide (% of best substrate) [28] was 52, the in vitro phosphorylation, 1 uM peptide (% of best substrate) [29] was 34 and the in vitro phosphorylation, 10 uM peptide (% of best substrate) [29] was 21. It also gave an in vitro phosphorylation, 1 uM peptide (% of best substrate) [30] of 33, an in vitro phosphorylation, 10 uM peptide (% of best substrate) [30] of 34 and an in vitro phosphorylation, 1 uM peptide (% of best substrate) [31] of 12. For the same protein, the in vitro phosphorylation, 10 uM peptide (% of best substrate) [31] was 14.

— patent US20050064507
